The values below come from US20260242492A1 (JOINT STOCK COMPANY BIOCAD, published 2026).

Broadly, the Kd is the equilibrium constant for the complex coming apart. By koff is commonly meant the first-order rate constant of dissociation. Read a high koff as a short-lived complex. One may read the kon as the second-order rate constant of association. Low readings indicate slower complex formation, high ones faster complex formation.

Test [1] addresses T1, biotinylated peptide [NH2]CEPANPSEKNSPSTQYCYSIQS[CH2CH2]biotin comprising a fragment of the human CD20 … (human, [NH2] at the N-terminus; [CH2CH2]biotin at the C-terminus (so in the source)).
T1 construct: Immobilized on streptavidin (SAX) sensors; also called CD20 peptide
T1 peptide: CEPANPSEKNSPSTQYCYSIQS
In words: BLI (Octet RED 384), biotinylated CD20 peptide on SAX sensors, antibody-like molecule as analyte, 1:1 model, global fit. On the procedure: (§1) Experiments were carried out using a kinetic buffer solution (hereinafter referred to as 1×KB); volume fraction of added Tween 20 was 0.1%; mass fraction of added BSA (bovine serum albumin) was 0.1%; pH 7.4. Before the measurement, the ProA sensors were regenerated with a solution of 50 mM glycine and hydrochloric acid, pH 1.8 (5 seconds in the regenerating solution, 5 seconds in 1×KB, three repetitions).
In the case of biotinylated […], the peptide at a concentration of 2.5 μg/ml was immobilized on the surface of SAX sensors (High Precision Streptavidin (SAX) biosensors, ForteBio) for 300 seconds. The baseline was recorded in a 1×KB solution for 120 seconds. Sensors loaded with peptide were then immersed into wells containing the solution of antibody-like molecule (analyte) in 1×KB for 300 seconds. Measurements were performed for solutions with analyte (antibody-like molecule in case of CD20 peptide) at concentrations […] and 75 µg/ml. Complex dissociation was recorded in 1×KB for 60 seconds.
(§2) To obtain numerical values of kinetic constants (kon is the on/association rate constant, kdis is the dissociation rate constant, KD is the equilibrium dissociation constant or affinity constant), the resulting sensograms were processed according to the 1:1 interaction model using Global Fit (selection of one set of kon, kdis, KD constants to analyze several sensograms of different concentrations) of the ForteBio Octet Data Analysis 9.0 software.
For orientation: In BLI a coated tip is dipped into the sample, and binding shifts an interference pattern.

Test [2] addresses T2, extracellular domain of the human CSF1R protein (hCSF1R_His) (human, UniProt P07333 20-512).
T2 construct: range 20-512; Made in CHO cells, molecular weight 57.4 kDa as printed; not shown: C-terminal His-tag and FLAG-tag
The experiment in a line: BLI (Octet RED 384), antibody-like molecule on ProA sensors, hCSF1R_His analyte 174.2 nM, 1:1 model. On the procedure:
as §1
In the case of the hPDlex-H6F and hCSF1R_His antigens, the Protein A (ProA) biosensors (ForteBio) were immersed in a solution with antibody-like molecules at a concentration of 10 µg/ml for 300 seconds to immobilize same. The baseline was recorded in 1×KB for 120 seconds. Sensors loaded with the antibody-like molecule were then immersed into wells containing a solution of the target antigen (analyte) in a kinetic buffer for 300 seconds. Measurements were performed for solutions with hPDlex-H6F analyte at concentrations of 10 µg/ml (485.4 nM), for solutions with hCSF1R_His analyte at concentrations of 10 µg/ml (174.2 nM). Complex dissociation in 1×KB was then detected for 600 seconds.
as §2

T2 sequence (P07333 20-512 limits assumed): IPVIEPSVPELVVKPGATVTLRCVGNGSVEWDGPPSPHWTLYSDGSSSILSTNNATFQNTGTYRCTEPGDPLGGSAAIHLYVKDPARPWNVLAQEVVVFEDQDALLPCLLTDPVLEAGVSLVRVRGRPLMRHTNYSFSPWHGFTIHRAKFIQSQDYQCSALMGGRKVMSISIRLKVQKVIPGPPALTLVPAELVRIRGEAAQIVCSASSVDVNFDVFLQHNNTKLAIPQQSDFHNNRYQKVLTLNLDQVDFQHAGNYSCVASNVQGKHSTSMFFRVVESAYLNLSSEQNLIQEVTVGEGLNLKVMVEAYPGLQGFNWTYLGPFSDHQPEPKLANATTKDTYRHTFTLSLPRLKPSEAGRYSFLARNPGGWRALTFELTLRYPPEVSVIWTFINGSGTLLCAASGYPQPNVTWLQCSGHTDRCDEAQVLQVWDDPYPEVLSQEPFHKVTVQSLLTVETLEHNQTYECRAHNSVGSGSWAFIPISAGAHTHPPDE

B1: antibody-like molecule 08-005 (binds CD20 and CSF1R) (bispecific antibody, human IgG1, kappa, L234A L235A)
heavy 1: EVQLVESGGGLVQPGGSLRLSCAASGYTFTSYNMHWVRQAPGKGLEWVGAIYPGNGDTSYNQKFKGRFTISVDKSKNTLYLQMNSLRAEDTAVYYCARVVYYSNSYWYFDVWGQGTLVTVSSASTKGPSVFPLAPSSKSTSGGTAALGCLVKDYFPEPVTVSWNSGALTSGVHTFPAVLQSSGLYSLSSVVTVPSSSLGTQTYICNVNHKPSNTKVDKRVEPKSCDKTHTCPPCPAPEAAGGPSVFLFPPKPKDTLYITREPEVTCVVVDVSHEDPEVKFNWYVDGVEVHNAKTKPREEQYNSTYRVVSVLTVLHQDWLNGKEYKCKVSNKALPAPIEKTISKAKGQPREPQVCTLPPSRDELTKNQVSLSCAVKGFYPSDIAVEWESNGQPENNYKTTPPVLDSDGSFFLVSKLTVDKSRWQQGNVFSCSVMHEALHNHYTQKSLSLSPGK
light 1: DIQMTQSPSSLSASVGDRVTITCRASSSVSYMHWYQQKPGKAPKPLIYAPSNLASGVPSRFSGSGSGTDFTLTISSLQPEDFATYYCQQWSFNPPTFGQGTKVEIKRTVAAPSVFIFPPSDEQLKSGTASVVCLLNNFYPREAKVQWKVDNALQSGNSQESVTEQDSKDSTYSLSSTLTLSKADYEKHKVYACEVTHQGLSSPVTKSFNRGEC
heavy 2: not shown
light 2: QAGLTQPPSVSVAPGQTARITCGGNNIGSKSVHWYQQKPGQAPVLVVYGDSDRPSGIPERFSGSNSGNTATLTISRVEAGDEADYYCQVWDISSDHVVFGGGTQLTVLQRQVKPEAWLSKGPSPGPGRLQLVCHVSGFYPKPVWVMWMRGEQEQQGTQLGDILPNADWTWYLRATLDVADGEAAGLSCRVKHSSLEGQDIILYWRGSC
notes: Four distinct chains: Ocrelizumab Fab arm (hole) and anti-CSF1R Fab-like arm with b2m/CD1b alpha3 dimerization unit (knob)
In test [1], B1 yielded a Kd of 483 nM, a koff of 0.0581 s⁻¹ and a kon of 120000 M⁻¹ s⁻¹. Further, in test [2], binding was put at a Kd of 1.4 nM, the koff worked out at 0.000253 s⁻¹ and the kon turned out to be 181000 M⁻¹ s⁻¹.

B2: antibody-like molecule 08-006 (binds CSF1R and CD20) (bispecific antibody, human IgG1, kappa, L234A L235A)
heavy 1: QVQLVESGGGLVRPGGSLRLSCAASEFTFDDYAMSWVRQAPGKGLEWVSAISWNGGSTNYADSVKGRFTISRDNAKNSLYLQMNSLRAEDTALYYCASTVEVAHRRLYKYLEVWGQGTLVTVSSASTKGPSVFPLAPSSKSTSGGTAALGCLVKDYFPEPVTVSWNSGALTSGVHTFPAVLQSSGLYSLSSVVTVPSSSLGTQTYICNVNHKPSNTKVDKRVEPKSCDKTHTCPPCPAPEAAGGPSVFLFPPKPKDTLYITREPEVTCVVVDVSHEDPEVKFNWYVDGVEVHNAKTKPREEQYNSTYRVVSVLTVLHQDWLNGKEYKCKVSNKALPAPIEKTISKAKGQPREPQVCTLPPSRDELTKNQVSLSCAVKGFYPSDIAVEWESNGQPENNYKTTPPVLDSDGSFFLVSKLTVDKSRWQQGNVFSCSVMHEALHNHYTQKSLSLSPGK
light 1: QAGLTQPPSVSVAPGQTARITCGGNNIGSKSVHWYQQKPGQAPVLVVYGDSDRPSGIPERFSGSNSGNTATLTISRVEAGDEADYYCQVWDISSDHVVFGGGTQLTVLRTVAAPSVFIFPPSDEQLKSGTASVVCLLNNFYPREAKVQWKVDNALQSGNSQESVTEQDSKDSTYSLSSTLTLSKADYEKHKVYACEVTHQGLSSPVTKSFNRGEC
heavy 2: not shown
light 2: DIQMTQSPSSLSASVGDRVTITCRASSSVSYMHWYQQKPGKAPKPLIYAPSNLASGVPSRFSGSGSGTDFTLTISSLQPEDFATYYCQQWSFNPPTFGQGTKVEIKQRQVKPEAWLSKGPSPGPGRLQLVCHVSGFYPKPVWVMWMRGEQEQQGTQLGDILPNADWTWYLRATLDVADGEAAGLSCRVKHSSLEGQDIILYWRGSC
notes: Four distinct chains: anti-CSF1R Fab arm (hole) and Ocrelizumab Fab-like arm with b2m/CD1b alpha3 dimerization unit (knob)
Regarding B2, in test [1], the Kd stood at 2600 nM, the koff came out at 0.418 s⁻¹ and the kon was found to be 161000 M⁻¹ s⁻¹. In test [2], this molecule displayed a Kd of 1.92 nM, a koff of 0.000372 s⁻¹ and a kon of 194000 M⁻¹ s⁻¹.
